# Data: PMC10293810
# Molecular target: T1, TREX1 catalytic core (murine) (UniProt Q91XB0)
# T1 sequence: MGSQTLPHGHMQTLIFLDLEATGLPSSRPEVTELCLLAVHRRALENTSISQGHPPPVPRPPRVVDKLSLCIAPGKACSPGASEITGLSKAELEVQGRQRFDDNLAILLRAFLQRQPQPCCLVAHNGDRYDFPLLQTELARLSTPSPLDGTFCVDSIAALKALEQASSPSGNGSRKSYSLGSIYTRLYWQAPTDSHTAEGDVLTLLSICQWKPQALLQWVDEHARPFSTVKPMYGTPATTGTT
# Experiment: fluorescence polarization
# Settings: FP with 5 nM ligand at 25 C (some FPCD at 4 C); buffer for MS2-CP (BB6): 100 mM Tris pH 7.5, 10 mM MgCl2, 80 mM KCl, 0.1 mg/mL BSA; other buffers not in …
sequence,measurement,value
GAAGTGCCCGTGACGCGCGCGACGCCAGCCGACGAAGGCGGGACCCAGAGCGCGCGCCGT (double strand) [ds-[F]d(N)60],Kd,30 nM
